# Assay results taken from patent US20100267637A1, “TREATMENT OF MELANOMA WITH ALPHA THYMOSIN PEPTIDES IN COMBINATION WITH A KINASE INHIBITOR” (SciClone Pharmaceuticals, Inc., priority 2007, published 2010).
# “Also recorded” adds a separate entry of the source. Where no end group is shown, it is not given here.
# What was measured:
# [1] = system: murine B16 melanoma cells; assay: Anti-tumor effect: tumor weight at necropsy (Day 16) in mice bearing subcutaneous B16 melanoma; format: in vivo, C57BL/6 mice
# Method: (§1) The toxic effects of the dosing regimens were also monitored. […] Meanwhile 9H10 was given in two groups via i.p. on Day 3, 6 and 9. […] Tumor volume and body weight were measured every three days, and tumor weights were measured on Day 16 at the end of the study.
# On the day of tumor implantation, approximately 1×10^6 cells in 0.1 mL were subcutaneously injected on the right axillary area of each mouse. The day of tumor implantation was defined as Day 0.
# (§2) On Day 3, the animals were randomly assigned into nine different weight-matched and tumor-size-matched groups. Dosing was started on Day 3 using the regimen according to Table 2.
# (§3) From Day 1 to Day 15, mortality and moribundity were checked twice daily, the body weights were recorded once every 3 days, and tumors were measured using a caliper once every 3 days. At the end of the study (Day 16), the animals were euthanized by CO2 asphyxiation, and the tumors were excised and weighed.
# The anti-tumor effect of the test article was further evaluated with tumor weight (TW) measured on day of necropsy (Day 16). The PI of TW was calculated using the equation below:
# PITW(%)=100×(TW vehicle−TW drug treated)/TW vehicle
# (§4) Inter-group comparison was performed in terms of tumor volume, tumor weight and body weight, using a student's t test. P values of less than 0.05 were considered to be statistically significant.
# [2] = Treatment toxicity: body weight and drug-induced animal deaths in B16 melanoma-bearing mice; format: in vivo, C57BL/6 mice; conditions: for body weight effect in words (loss / difference vs vehicle group): throughout the course of the study
# Method: as §1, §2, §3
# Toxicity of all treatment regimens was evaluated with the body weights of the study animals along with the drug-induced animal deaths. The inhibition of body weight was calculated using Excel according to the equation below:
# PIBW(%)=100×(BW vehicle−BW drug treated)/BW vehicle
# as §4
substance,measurement,setting,value
"Thymosin Alpha-1 (Ac-SDAAVDTSSEITTKDLKEKKEVVEEAEN; ends and bridges not checked; UniProt P06454 2-29, looked up) [TA-1, 28 amino acid peptide, immunomodulator; test article (SciClone), 6 mg/kg s.c. daily]",Tumor weight on Day 16,[1]; animal F1,0.63 g
same,Tumor weight on Day 16,[1]; animal F2,0.44 g
same,Tumor weight on Day 16,[1]; animal F3,0.45 g
same,Tumor weight on Day 16,[1]; animal F4,0.75 g
same,Tumor weight on Day 16,[1]; animal F5,0.08 g
same,Tumor weight on Day 16,[1]; animal M1,0.73 g
same,Tumor weight on Day 16,[1]; animal M2,1.30 g
same,Tumor weight on Day 16,[1]; animal M3,2.00 g
same,Tumor weight on Day 16,[1]; animal M4,2.20 g
same,Tumor weight on Day 16,[1]; animal M5,1.05 g
same,Tumor Weight (g) (Mean ± SD),[1]; group mean,0.96 ± 0.688 g
same,percent inhibition of tumor weight vs vehicle,[1]; vs vehicle,43.35%
same,Body weights on Day 0,"[2]; Day 0, animal F1",21.40 g
same,Body weights on Day 0,"[2]; Day 0, animal F2",19.20 g
same,Body weights on Day 0,"[2]; Day 0, animal F3",21.10 g
same,Body weights on Day 0,"[2]; Day 0, animal F4",20.20 g
same,Body weights on Day 0,"[2]; Day 0, animal F5",19.00 g
same,Body weights on Day 0,"[2]; Day 0, animal M1",21.60 g
same,Body weights on Day 0,"[2]; Day 0, animal M2",22.50 g
same,Body weights on Day 0,"[2]; Day 0, animal M3",22.10 g
same,Body weights on Day 0,"[2]; Day 0, animal M4",21.70 g
same,Body weights on Day 0,"[2]; Day 0, animal M5",19.80 g
same,Percent inhibition of body weight vs vehicle (PIBW),[2]; Day 0,−0.1440%
same,Body Weight (g) (Mean ± SD),[2]; Day 3 (start of dosing),20.44 ± 1.460 g
same,Body weights on Day 3,"[2]; Day 3, animal F3",20.40 g
same,Body weights on Day 3,"[2]; Day 3, animal F4",20.30 g
same,Body weights on Day 3,"[2]; Day 3, animal F5",17.20 g
same,Body weights on Day 3,"[2]; Day 3, animal M1",21.40 g
same,Body weights on Day 3,"[2]; Day 3, animal M2",22.20 g
same,Body weights on Day 3,"[2]; Day 3, animal M3",21.60 g
same,Body weights on Day 3,"[2]; Day 3, animal M4",21.50 g
same,Percent inhibition of body weight vs vehicle (PIBW),[2]; Day 3,2.1073%
same,Body Weight (g) (Mean ± SD),[2]; Day 6,21.38 ± 1.220 g
same,Body weights on Day 6,"[2]; Day 6, animal F1",22.10 g
same,Body weights on Day 6,"[2]; Day 6, animal F2",20.10 g
same,Body weights on Day 6,"[2]; Day 6, animal F3",21.80 g
same,Body weights on Day 6,"[2]; Day 6, animal F4",20.80 g
same,Body weights on Day 6,"[2]; Day 6, animal F5",20.20 g
same,Body weights on Day 6,"[2]; Day 6, animal M1",22.00 g
same,Body weights on Day 6,"[2]; Day 6, animal M2",22.90 g
same,Body weights on Day 6,"[2]; Day 6, animal M3",22.30 g
same,Body weights on Day 6,"[2]; Day 6, animal M4",22.40 g
same,Body weights on Day 6,"[2]; Day 6, animal M5",19.20 g
same,Percent inhibition of body weight vs vehicle (PIBW),[2]; Day 6,−4.8039%
same,Body weights on Day 9,"[2]; Day 9, animal F1",21.50 g
same,Body weights on Day 9,"[2]; Day 9, animal F2",19.70 g
same,Body weights on Day 9,"[2]; Day 9, animal F3",20.30 g
same,Body weights on Day 9,"[2]; Day 9, animal F4",20.40 g
same,Body weights on Day 9,"[2]; Day 9, animal F5",19.20 g
same,Body weights on Day 9,"[2]; Day 9, animal M1",21.50 g
same,Body weights on Day 9,"[2]; Day 9, animal M2",22.40 g
same,Body weights on Day 9,"[2]; Day 9, animal M3",22.00 g
same,Body weights on Day 9,"[2]; Day 9, animal M4",21.90 g
same,Body weights on Day 9,"[2]; Day 9, animal M5",19.90 g
same,Percent inhibition of body weight vs vehicle (PIBW),[2]; Day 9,−2.3028%
same,Body Weight (g) (Mean ± SD),[2]; Day 12,21.24 ± 1.623 g
same,Body weights on Day 12,"[2]; Day 12, animal F1",21.90 g
same,Body weights on Day 12,"[2]; Day 12, animal F2",19.10 g
same,Body weights on Day 12,"[2]; Day 12, animal F3",20.70 g
same,Body weights on Day 12,"[2]; Day 12, animal F5",18.90 g
same,Body weights on Day 12,"[2]; Day 12, animal M1",22.60 g
same,Body weights on Day 12,"[2]; Day 12, animal M2",23.50 g
same,Body weights on Day 12,"[2]; Day 12, animal M3",22.70 g
same,Body weights on Day 12,"[2]; Day 12, animal M4",22.40 g
same,Body weights on Day 12,"[2]; Day 12, animal M5",19.70 g
same,Percent inhibition of body weight vs vehicle (PIBW),[2]; Day 12,2.9694%
same,Body Weight (g) (Mean ± SD),[2]; Day 15,22.74 ± 1.459 g
same,Body weights on Day 15,"[2]; Day 15, animal F1",24.30 g
same,Body weights on Day 15,"[2]; Day 15, animal F2",20.70 g
same,Body weights on Day 15,"[2]; Day 15, animal F3",22.30 g
same,Body weights on Day 15,"[2]; Day 15, animal F4",21.80 g
same,Body weights on Day 15,"[2]; Day 15, animal F5",21.30 g
same,Body weights on Day 15,"[2]; Day 15, animal M1",22.60 g
same,Body weights on Day 15,"[2]; Day 15, animal M2",24.50 g
same,Body weights on Day 15,"[2]; Day 15, animal M3",24.70 g
same,Body weights on Day 15,"[2]; Day 15, animal M4",23.70 g
same,Body weights on Day 15,"[2]; Day 15, animal M5",21.50 g
same,Percent inhibition of body weight vs vehicle (PIBW),[2]; Day 15,−2.7100%
same,body weight effect in words (loss / difference vs vehicle group),[2],did no cause any statistically significant loss of body weights; also recorded: did not cause any loss of body weights
same,body weight effect in words (loss / difference vs vehicle group),[2]; listed as TA-1 alone,no statistical differences in body weights
